Experimental data: publication PMC6847799, “A global functional analysis of missense mutations reveals two major hotspots in the PALB2 tumor suppressor” (Nucleic Acids Research, 2019)

Target: T1, GAL4DBD-BRCA1 wild-type (aa 1315–1863) (UniProt P38398 1315-1863)
T1 construct: BRCA1, aa 1315-1863; bait of the mammalian two-hybrid; source: HEK293FT, transfected (mammalian two-hybrid fusion)
Test: two-hybrid; mammalian two-hybrid in HEK293FT cells: VP16 AD-PALB2 N- or C-terminal construct (prey) co-transfected with GAL4DBD-BRCA1 or GAL4DBD-BRCA2 (bait), pG5Luc reporter and pGR-TK internal control; dual-luciferase read 24 h post-transfection; mean percentage luciferase activity of 3 independent experiments
Details: partners not purified

T1 sequence (P38398 1315-1863): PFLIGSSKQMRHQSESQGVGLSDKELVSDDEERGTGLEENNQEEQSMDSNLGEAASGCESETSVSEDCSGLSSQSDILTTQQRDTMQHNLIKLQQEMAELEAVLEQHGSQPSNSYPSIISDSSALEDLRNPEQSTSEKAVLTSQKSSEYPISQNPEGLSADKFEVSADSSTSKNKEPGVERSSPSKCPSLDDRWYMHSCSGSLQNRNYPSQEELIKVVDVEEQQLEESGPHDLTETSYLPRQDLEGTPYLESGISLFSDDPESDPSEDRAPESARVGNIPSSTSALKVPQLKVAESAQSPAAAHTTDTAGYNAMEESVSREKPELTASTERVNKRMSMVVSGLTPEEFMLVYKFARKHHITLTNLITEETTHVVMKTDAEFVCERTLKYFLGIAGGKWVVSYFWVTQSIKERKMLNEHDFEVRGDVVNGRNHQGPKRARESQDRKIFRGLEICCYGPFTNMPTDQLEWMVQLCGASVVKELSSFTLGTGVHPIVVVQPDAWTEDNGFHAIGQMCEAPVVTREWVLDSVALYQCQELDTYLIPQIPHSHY

B1: VP16 AD-PALB2 N-terminal wild-type (aa 1–319) (domain or fragment, human, UniProt Q86YC2 1-319, looked up)
chain: MDEPPGKPLSCEEKEKLKEKLAFLKREYSKTLARLQRAQRAEKIKHSIKKTVEEQDCLSQQDLSPQLKHSEPKNKICVYDKLHIKTHLDEETGEKTSITLDVGPESFNPGDGPGGLPIQRTDDTQEHFPHRVSDPSGEQKQKLPSRRKKQQKRTFISQERDCVFGTDSLRLSGKRLKEQEEISSKNPARSPVTEIRTHLLSLKSELPDSPEPVTEINEDSVLIPPTAQPEKGVDTFLRRPNFTRATTVPLQTLSDSGSSQHLEHIPPKGSSELTTHDLKNIRFTSPVSLEAQGKKMTVSTDNLLVNKAISKSGQLPTSS
notes: PALB2 (1186-amino acid protein), human, aa 1-319; cloned in pVP16 downstream of the VP16 AD cassette; prey; also called PALB2 WT; PALB2 N-terminal construct; source: HEK293FT, transfected (mammalian two-hybrid fusion)
- fold increase of luciferase-reporter activity over BRCA1 alone: 2 fold
